From US20190338038A1 (CELLERANT THERAPEUTICS, published 2019) come the findings set out here.

Where a chain is given by its changes, count along the chain named.

T1: human interleukin 1 receptor accessory protein, membrane-bound form on cells (human, UniProt Q9NPH3 21-570)
T1 sequence: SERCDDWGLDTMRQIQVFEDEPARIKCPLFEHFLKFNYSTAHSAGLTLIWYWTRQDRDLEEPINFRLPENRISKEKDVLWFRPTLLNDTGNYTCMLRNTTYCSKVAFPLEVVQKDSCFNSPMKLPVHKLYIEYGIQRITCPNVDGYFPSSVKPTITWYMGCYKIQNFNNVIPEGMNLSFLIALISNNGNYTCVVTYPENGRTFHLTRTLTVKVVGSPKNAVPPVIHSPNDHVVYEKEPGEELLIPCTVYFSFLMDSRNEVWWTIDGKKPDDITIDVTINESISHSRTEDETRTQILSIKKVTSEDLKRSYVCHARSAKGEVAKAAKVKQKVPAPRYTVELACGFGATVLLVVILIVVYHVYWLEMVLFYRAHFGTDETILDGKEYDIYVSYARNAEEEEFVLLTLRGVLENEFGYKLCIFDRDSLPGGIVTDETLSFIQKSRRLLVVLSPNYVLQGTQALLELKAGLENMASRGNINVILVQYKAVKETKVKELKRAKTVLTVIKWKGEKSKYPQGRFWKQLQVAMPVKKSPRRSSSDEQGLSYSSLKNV

T2: recombinant mouse IL1-RAP (mouse, UniProt Q61730 21-359, limits assumed)
T2 sequence (looked up): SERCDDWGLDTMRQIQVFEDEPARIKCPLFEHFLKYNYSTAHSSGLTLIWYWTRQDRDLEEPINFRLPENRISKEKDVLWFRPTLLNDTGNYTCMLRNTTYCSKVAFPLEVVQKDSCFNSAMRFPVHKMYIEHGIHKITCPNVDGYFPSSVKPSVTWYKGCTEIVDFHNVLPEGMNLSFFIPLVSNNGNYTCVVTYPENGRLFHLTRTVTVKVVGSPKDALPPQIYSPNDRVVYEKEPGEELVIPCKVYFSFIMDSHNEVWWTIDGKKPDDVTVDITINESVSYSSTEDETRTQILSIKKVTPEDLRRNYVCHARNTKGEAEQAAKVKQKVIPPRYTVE

B1: anti-IL1-RAP antibody clone 54.8H8 (antibody, V domains shown)
VH: EVQLVESGGGLVKPGGSLKLSCAASGFSFSSYGMSWVRQSPEKRLEWVAEITSGGSHTYYPDTVTGRFTISRDNAKNTLYLEMSSLRSEDTAMYYCSRSYGNYVMDYWGQGTSVTVSS
VL: QIVLTQSPAIMSASPGEKVTMTCSASSSVIYIYWFQQKPGSSPRLLIYDTSNLASGVPLRFSGSGSGTSYSLTISRMETEDVSTYYCQQWNSYPPTFGGGTKLEIK
notes: Mouse monoclonal antibody
B2: anti-IL1-RAP antibody clone 50.6C12 (antibody, V domains shown)
VH: EVQLQQSGPELVKPGDSVKMSCKASGYTFTDYYMDWVKQSHGKSLEWIGYIYPHNGGTTYNQKFKGKATLTVDKSSSTAYMELHSLTSEDSAVYYCARSPFNYKDPMDWWGQGTSVTVSS
VL: DIQMTQSPASLSASVGETVTITCRASGNIHNYLAWYQQKQGKSPHLLVYNAETLADGVPSRFSGSGSGTQYSLKINSLQPEDFGTYYCQHFWSTPWTFGGGTKLEIK
notes: Mouse monoclonal antibody
B3: anti-IL1-RAP antibody clone 46.1D2 (antibody, V domains shown)
VH: QVQLQQSGPELVKPGASVKISCKASGYGFSSSWMNWVKQRPGKGLEWIGRIYPGDGNTNYYGEFKGKATLTADKSSSTAYMQLNSLTSEDSAVYFCARNDGYPAWFTYWGQGTLVTVSA
VL: DIQMTQTTSSLSASLGDRVTISCSASQGISNYLNWYQQKPDGSVKLLIYYTSTLHSGVPSRFSGSGSGTDYSLTISNLEPEDIATYYCQQYSYLPWTFGGGTKLEIK
notes: Mouse monoclonal antibody
B4: anti-IL1-RAP antibody clone 50.3G7 (antibody, V domains shown)
VH: QIQLVQSGPELKKPGETVKISCKASGYTFTNYGMHWVKQSPGEGLKWMGWINTYTGEPTYADDFKGRFGFSLETSASSAYLQINDLKNEDMATYFCARYYGNFDYWGQGTTLTVSS
VL: DIVLTQSPATLSVTPGDSVSLSCRASQSISNNLHWYQQKSHESPRLLIKYASQSISGIPSRFSGSGSGTDFTLSINSVETEDFGVYFCQQSHNWPHTFGGGTKLEIKR
notes: Mouse monoclonal antibody
B5: anti-IL1-RAP antibody clone 42.1D3 (antibody, V domains shown)
VH: QIQLVQSGPELKKPGETVNISCKASGYTFTDFSMHWVKQAPGKGLQWMGWINTETGEPTYADDFEARFAFSLATSANTAYLKINNLKNEDTATYFCARFFLHFDYWGQGTTLTVSS
VL: DIVLTQSPATLSVTPGDSVSLSCRASQSINNDLHWYQQKSHESPRLLIKYASQSISGIPSRFSGSGSGTDFTLRINSVETEDFRMYFCQQSNNWPLTFGAGTKLEVK
notes: Mouse monoclonal antibody
B6: anti-IL1-RAP antibody clone 54.9E9 (antibody, V domains shown)
VH: QIQLVQSGPELKKPGETVKISCKASSYTFTDYSMHWVKQAPGKGLKWMGWINTETGEPRYADDFKGRFAFSLETSASTAYLQINNLKNEDTATYFCARFLLHFDYWGQGTILTVSS
VL: QIVLTQSPAIMSASPGEKVTMTCSASSSVSYMHWYQQKTGTSPKRLIYDTSKLASGVPARFSGSGSGTSYSLTISSMEAEDAATYYCHQRSYYPLTFGAGAKLELK
notes: Mouse monoclonal antibody
B7: anti-IL1-RAP antibody clone 54.15B5 (antibody, V domains shown)
VH: KWSWWSLGGGLAKPGGSLKLSCTASGFTFTSYVMSWVRQSPEKRLEWVAEISRGGSHTYYSDTVTGRFTISRDNANNALYLEMSSVRSADTAMYFCTRAYGNSEMDFWGQGTSVTVSS
VL: QIVLTQSPAIMSASPGEKVTMTCSASSSISYIHWYRQKPGTSPKRWIYDTSNLASGVPARFSGSGSGTSYSLTIINMEAEDAATYYCHQRTYYPLTFGGGTRLELK
notes: Mouse monoclonal antibody
B8: H54.9D7 HC1 / H54.9D7 LC1 (antibody, V domains shown)
VH: QVQLVQSGAEVKKPGASVKVSCKASGYIFITYWMNWVRQAPGQGLEWMGQIFPASGTTYYAQKFQGRVTMTRDTSTSTVYMELSSLRSEDTAVYYCARTDFYRYDGGYALDYWGQGTLVTVSS
VL: DIQMTQSPSSLSASVGDRVTITCRASQSVSTSGYSSMHWYQQKPGKAPKLLIYYASDLESGVPSRFSGSGSGTDFTLTISSLQPEDFATYYCHHSWGIPMYTFGQGTKLEIKR
B9: h54.9D7 HC3 / h54.9D7 LC2 (antibody, V domains shown)
VH: B8 VH with V20L, M48V, V68A, M70L, R72V, V79A, V119L
VL: B8 VL with M4L, V19A, L82V
B10: Chi54.9D7 HC#1 / h54.9D7 LC1 (antibody, V domains shown)
VH: HVQLQQSGPELVRPGASVKLSCKASGYIFITYWMNWVKQRPGQGLEWVGQIFPASGTTYYNELFEGKATLTVDTSSNTAYMHLTSLTSEDSAVYYCARTDFYRYDGGYALDYWGQGTSLTVSS
VL: B8 VL
B11: H54.9D7 HC3 / H54.9D7 LC1 (antibody, V domains shown)
VH: B8 VH with V20L, M48V, V68A, M70L, R72V, V79A, V119L
VL: B8 VL
B12: h54.9D7 HC1 / h54.9D7 LC2 (antibody, V domains shown)
VH: B8 VH
VL: B8 VL with M4L, V19A, L82V
B13: Chi54.9D7 HC#1 / h54.9D7 LC2 (antibody, V domains shown)
VH: B10 VH
VL: B8 VL with M4L, V19A, L82V
B14: h54.9D7 HC2 / h54.9D7 LC2 (antibody, V domains shown)
VH: B8 VH with M48V, R72V
VL: B8 VL with M4L, V19A, L82V
B15: h54.9D7 HC2 / h54.9D7 LC1 (antibody, V domains shown)
VH: B8 VH with M48V, R72V
VL: B8 VL
B16: 42.3G6 (antibody, V domains shown)
VH: QIQLVQSGPELKKPGETVKISCKASGYTFTDYSMHWVKQAPEKGLKWMGWINTETGEPTYADDFKGRFAFSLETSASTAYLQINNLKNEDTATYFCARGSFPWFTYWGQGTLVTVSA
VL: DIVMTQAAFSNPVTLGTSASISCRSSKSLLHSNGITYLYWYLQKPGQSPQLLIYQMSNLASGVPDRFSSSGSGTDFTLRISRVEAEDVGVYYCAQNLELPFTFGSGTKLEIK
notes: also called anti-IL1-RAP antibody clone 42.3G6
B17: 46.8G1 (antibody, V domains shown)
VH: QVQLQQSGPELVKPGASVKISCTASGYAFSTSWMNWVKQRPGKGLEWIGRIYPGDGDSNYNGKFKGKATLTADKSSSTAYMQLSSLTSEDSAVYFCARRDYYGFFDVWGAGTTVTVSS
VL: DIQMTQSPASLSVSVGETVTITCRASENIYSNLVWYQQKQGKSPQLLVYAATNLADGVPSRFSGSGSDTQYSLKINSLQSEDFGSYYCLHFWGPPYMYTFGGGTNLEMKR
notes: also called anti-IL1-RAP antibody clone 46.8G1
B18: h54.9D7 HC2 / Chi54.9D7 LC#1 (antibody, V domains shown)
VH: B8 VH with M48V, R72V
VL: DIVLTQSPISLAVFLGQRATISCRASQSVSTSGYSSMHWYQQKAGQPPKLLIKYASDLESGVPVRFSGSGSGTDFILNIHPVEVEDIATYYCHHSWGIPMYTFGGGTKLEIKR
notes: also called humanized 54.9D7 HC2 with the chimeric light chain
B19: h54.9D7 HC1 / Chi54.9D7 LC#1 (antibody, V domains shown)
VH: B8 VH
VL: B18 VL
notes: also called humanized 54.9D7 HC1 with the chimeric light chain

The target of the first experiment is T1, human interleukin 1 receptor accessory …. Briefly: cell-based or functional assay.
Take B1: the “% Inhibition at 10 ug/mL of IL-1β-induced NF-κB signaling, HEK-Blue IL-1β cells” value was determined as 50.8% and the “IC50 of inhibition of IL-1β-induced NF-κB signaling, HEK-Blue IL-1β cells” value was 2.05 µg/mL.
Taken in the same sequence, the figures for B2 were 69% and 0.41 µg/mL.
The like results for B3 were, in that order, 69.2% and 0.13 µg/mL.
Taken in the same sequence, the figures for B4 were 48% and 12.6 µg/mL.
In the case of B5, the “% Inhibition at 10 ug/mL of IL-1β-induced NF-κB signaling, HEK-Blue IL-1β cells” value was 59% and the “IC50 of inhibition of IL-1β-induced NF-κB signaling, HEK-Blue IL-1β cells” value worked out at 7.99 µg/mL.
Taken in the same sequence, the figures for B6 were 69.1% and 1.3 µg/mL.
Taken in the same sequence, the figures for B7 were 58.1% and 0.29 µg/mL.

Another experiment deals with human interleukin 1 receptor accessory protein, membrane-bound form on cells (human) (UniProt Q9NPH3). Briefly: FACS on EOL-1 cells, FITC; antibody concentration not given.
For the molecule B8, the MFI is 4.9.
With B9, the MFI came to 5.49.
The same measure, in the same setting: then B10, with 7.96.
On the same count and under the same terms, then B11, with 4.86; and B12, with 5.14.
Still for that read-out and setting: then B13, with 7.8.
The molecule B14 came in with an MFI of 5.69.
The same measure, in the same setting: the result for B15 reads 5.25.

In the next experiment the target is T2, recombinant mouse IL1-RAP. Briefly: FACS (GeoMean), bar series mIL1RAP.
B1: the binding result is given as “no binding (tested: not given)”.
Same read-out and setting: then B2, with “no binding (tested: not given)”.
On the same count and under the same terms, then B3, with “no binding (tested: not given)”; and B16, with “no binding (tested: not given)”; and B17, with “no binding (tested: not given)”.
Same read-out and setting: the result for B4 reads “no binding (tested: not given)”; that for B5, “no binding (tested: not given)”.
Take B6: the binding result is “no binding (tested: not given)”.
Still for that read-out and setting: then B7, with “no binding (tested: not given)”.

In a further experiment the target is T1, human interleukin 1 receptor accessory …. Briefly: FACS on EOL-1 cells, FITC; antibody concentration not given.
B18 displayed an MFI of 75.1.
Still for that read-out and setting: the result for B19 reads 21.3.
